Measurements taken from the supplement of paper PMC7125110.
± gives the standard error. For some of these results: This sample holds only a part of the variants without activity.

B1: glmS ribozyme (parent)
chain: AUAAAAGCGCCAGAACUACAGAAAUGUAGUUGACGAGGAGGAGGUUUAUCGAAUUUUCGGCGGAUGCCUCCAAA

Legend:
Settings in all cases: with glucosamine-6-phosphate
glucosamine-6-phosphate [1] = variants of: B1; test: kcat; higher = faster cleavage; RNA array
Summary of the method: (§1)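 E. coli RNA polymerase transcribed barcoded ribozyme variants in situ on sequenced MiSeq chips, which were tracked via a hybridised Cy3 probe at 37 °C. Tiles were imaged over ~14 h after glucosamine-6-phosphate (40 μM to 10 mM) in HEPES/KCl/Mg(OAc)2 buffer was flowed in. Normalised per-tile medians were fit to one- or two-exponential decays for kobs, and kcat and KM came from weighted Michaelis–Menten fits.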

glucosamine-6-phosphate [2] = variants of: B1; test: KM; higher = weaker cofactor use; RNA array
Summary of the method: as §1

glucosamine-6-phosphate [3] = variants of: B1; test: self-cleavage kobs at 40 uM GlcN6P; higher = faster cleavage; RNA array
Summary of the method: as §1

glucosamine-6-phosphate [4] = variants of: B1; test: self-cleavage kobs at 160 uM GlcN6P; higher = faster cleavage; RNA array
Summary of the method: as §1

glucosamine-6-phosphate [5] = variants of: B1; test: self-cleavage kobs at 640 uM GlcN6P; higher = faster cleavage; RNA array
Summary of the method: as §1

glucosamine-6-phosphate [6] = variants of: B1; test: self-cleavage kobs at 2500 uM GlcN6P; higher = faster cleavage; RNA array
Summary of the method: as §1

glucosamine-6-phosphate [7] = variants of: B1; test: self-cleavage kobs at 10000 uM GlcN6P; higher = faster cleavage; RNA array
Summary of the method: as §1

**Q.** Which kcat (glucosamine-6-phosphate [1]) does the source give for A64G U65A here?
**A.** 0.00547 ± 0.00084 s⁻¹

**Q.** What about the KM (glucosamine-6-phosphate [2]) of the same variant?
**A.** 1850 ± 410 µM

**Q.** What about the “self-cleavage kobs at 40 uM GlcN6P” value (glucosamine-6-phosphate [3]) of the same variant?
**A.** 0.000129 ± 2.2e-05 s⁻¹

**Q.** And the “self-cleavage kobs at 160 uM GlcN6P” value (glucosamine-6-phosphate [4])?
**A.** 0.000381 ± 7.6e-05 s⁻¹

**Q.** And the “self-cleavage kobs at 640 uM GlcN6P” value (glucosamine-6-phosphate [5])?
**A.** 0.00133 ± 0.00024 s⁻¹

**Q.** What about the “self-cleavage kobs at 2500 uM GlcN6P” value (glucosamine-6-phosphate [6]) of the same variant?
**A.** 0.00387 ± 0.00065 s⁻¹

**Q.** And the “self-cleavage kobs at 10000 uM GlcN6P” value (glucosamine-6-phosphate [7])?
**A.** 0.00429 ± 0.00072 s⁻¹

**Q.** Which kcat (glucosamine-6-phosphate [1]) does the source give for U47A U54A U65C here?
**A.** 0.00046 ± 0.0001 s⁻¹

**Q.** And the KM (glucosamine-6-phosphate [2])?
**A.** 1750 ± 700 µM

**Q.** And the “self-cleavage kobs at 640 uM GlcN6P” value (glucosamine-6-phosphate [5])?
**A.** 0.000114 ± 2.7e-05 s⁻¹

**Q.** What about the “self-cleavage kobs at 2500 uM GlcN6P” value (glucosamine-6-phosphate [6]) of the same variant?
**A.** 0.000387 ± 0.0001 s⁻¹

**Q.** And the “self-cleavage kobs at 10000 uM GlcN6P” value (glucosamine-6-phosphate [7])?
**A.** 0.000358 ± 8.9e-05 s⁻¹

**Q.** G40A C67U was tested. Which kcat (glucosamine-6-phosphate [1]) did it give?
**A.** 0.000237 ± 3.9e-05 s⁻¹

**Q.** And the KM (glucosamine-6-phosphate [2])?
**A.** 964 ± 350 µM

**Q.** What about the “self-cleavage kobs at 160 uM GlcN6P” value (glucosamine-6-phosphate [4]) of the same variant?
**A.** 2.41e-05 ± 1.1e-05 s⁻¹

**Q.** And the “self-cleavage kobs at 640 uM GlcN6P” value (glucosamine-6-phosphate [5])?
**A.** 9.44e-05 ± 9.9e-06 s⁻¹

**Q.** And the “self-cleavage kobs at 2500 uM GlcN6P” value (glucosamine-6-phosphate [6])?
**A.** 0.000218 ± 2.6e-05 s⁻¹

**Q.** What about the “self-cleavage kobs at 10000 uM GlcN6P” value (glucosamine-6-phosphate [7]) of the same variant?
**A.** 0.000189 ± 2.6e-05 s⁻¹

**Q.** How did the kcat (glucosamine-6-phosphate [1]) turn out when C16G A52U was run?
**A.** 0.00015 ± 2.4e-05 s⁻¹

**Q.** And the KM (glucosamine-6-phosphate [2])?
**A.** 7790 ± 2700 µM

**Q.** What about the “self-cleavage kobs at 10000 uM GlcN6P” value (glucosamine-6-phosphate [7]) of the same variant?
**A.** 8.41e-05 ± 1.5e-05 s⁻¹

**Q.** Which results are given for G37U U47A?
**A.** kcat (glucosamine-6-phosphate [1]): < 1e-05 s⁻¹; self-cleavage kobs at 640 uM GlcN6P (glucosamine-6-phosphate [5]): < 1e-05 s⁻¹

**Q.** What does the source list for U57G G62U?
**A.** kcat (glucosamine-6-phosphate [1]): < 1e-05 s⁻¹; self-cleavage kobs at 40 uM GlcN6P (glucosamine-6-phosphate [3]): < 1e-05 s⁻¹; self-cleavage kobs at 2500 uM GlcN6P (glucosamine-6-phosphate [6]): < 1e-05 s⁻¹

**Q.** With A15G U55G as the variant, how does the kcat (glucosamine-6-phosphate [1]) read?
**A.** 0.0139 ± 0.0046 s⁻¹

**Q.** What about the KM (glucosamine-6-phosphate [2]) of the same variant?
**A.** 683 ± 310 µM

**Q.** And the “self-cleavage kobs at 40 uM GlcN6P” value (glucosamine-6-phosphate [3])?
**A.** 0.000914 ± 0.00013 s⁻¹

**Q.** And the “self-cleavage kobs at 160 uM GlcN6P” value (glucosamine-6-phosphate [4])?
**A.** 0.00183 ± 0.00047 s⁻¹

**Q.** What about the “self-cleavage kobs at 640 uM GlcN6P” value (glucosamine-6-phosphate [5]) of the same variant?
**A.** 0.00997 ± 0.0026 s⁻¹

**Q.** And the “self-cleavage kobs at 2500 uM GlcN6P” value (glucosamine-6-phosphate [6])?
**A.** 0.0187 ± 0.0059 s⁻¹

**Q.** What about the “self-cleavage kobs at 10000 uM GlcN6P” value (glucosamine-6-phosphate [7]) of the same variant?
**A.** 0.0118 ± 0.0027 s⁻¹

**Q.** How did the kcat (glucosamine-6-phosphate [1]) turn out when U30G C70A was run?
**A.** 6.7e-05 ± 4.4e-06 s⁻¹

**Q.** And the KM (glucosamine-6-phosphate [2])?
**A.** 410 ± 130 µM

**Q.** What about the “self-cleavage kobs at 640 uM GlcN6P” value (glucosamine-6-phosphate [5]) of the same variant?
**A.** 3.81e-05 ± 9.7e-06 s⁻¹

**Q.** And the “self-cleavage kobs at 2500 uM GlcN6P” value (glucosamine-6-phosphate [6])?
**A.** 6.45e-05 ± 9.7e-06 s⁻¹

**Q.** And the “self-cleavage kobs at 10000 uM GlcN6P” value (glucosamine-6-phosphate [7])?
**A.** 6.09e-05 ± 8.7e-06 s⁻¹

**Q.** How did the kcat (glucosamine-6-phosphate [1]) turn out when A15C G40U was run?
**A.** 0.000399 ± 4.3e-05 s⁻¹

**Q.** And the KM (glucosamine-6-phosphate [2])?
**A.** 1140 ± 230 µM

**Q.** And the “self-cleavage kobs at 160 uM GlcN6P” value (glucosamine-6-phosphate [4])?
**A.** 5.39e-05 ± 1e-05 s⁻¹

**Q.** What about the “self-cleavage kobs at 640 uM GlcN6P” value (glucosamine-6-phosphate [5]) of the same variant?
**A.** 0.000135 ± 1.4e-05 s⁻¹

**Q.** What about the “self-cleavage kobs at 2500 uM GlcN6P” value (glucosamine-6-phosphate [6]) of the same variant?
**A.** 0.000333 ± 5.3e-05 s⁻¹

**Q.** And the “self-cleavage kobs at 10000 uM GlcN6P” value (glucosamine-6-phosphate [7])?
**A.** 0.000348 ± 4.2e-05 s⁻¹

**Q.** A52G C58G was tested. Which kcat (glucosamine-6-phosphate [1]) did it give?
**A.** 1.7e-05 ± 1.7e-06 s⁻¹

**Q.** How did the kcat (glucosamine-6-phosphate [1]) turn out when C58G C70U was run?
**A.** 5.2e-05 ± 3.9e-06 s⁻¹

**Q.** And the KM (glucosamine-6-phosphate [2])?
**A.** 230 ± 110 µM

**Q.** And the “self-cleavage kobs at 160 uM GlcN6P” value (glucosamine-6-phosphate [4])?
**A.** 2.43e-05 ± 1.1e-05 s⁻¹

**Q.** What about the “self-cleavage kobs at 640 uM GlcN6P” value (glucosamine-6-phosphate [5]) of the same variant?
**A.** 3.07e-05 ± 1.1e-05 s⁻¹

**Q.** What about the “self-cleavage kobs at 2500 uM GlcN6P” value (glucosamine-6-phosphate [6]) of the same variant?
**A.** 5.21e-05 ± 7e-06 s⁻¹

**Q.** What about the “self-cleavage kobs at 10000 uM GlcN6P” value (glucosamine-6-phosphate [7]) of the same variant?
**A.** 4.8e-05 ± 7.6e-06 s⁻¹

**Q.** What does the source list for U54G A64G?
**A.** kcat (glucosamine-6-phosphate [1]): 0.0237 ± 0.011 s⁻¹; self-cleavage kobs at 40 uM GlcN6P (glucosamine-6-phosphate [3]): 0.000837 ± 0.0001 s⁻¹; self-cleavage kobs at 160 uM GlcN6P (glucosamine-6-phosphate [4]): 0.00149 ± 0.00039 s⁻¹; self-cleavage kobs at 640 uM GlcN6P (glucosamine-6-phosphate [5]): 0.0071 ± 0.0013 s⁻¹; self-cleavage kobs at 2500 uM GlcN6P (glucosamine-6-phosphate [6]): 0.0145 ± 0.0059 s⁻¹; self-cleavage kobs at 10000 uM GlcN6P (glucosamine-6-phosphate [7]): 0.0227 ± 0.0052 s⁻¹

**Q.** How did the kcat (glucosamine-6-phosphate [1]) turn out when A48G C61A was run?
**A.** 1.07e-05 ± 3.1e-06 s⁻¹

**Q.** What does the source list for A52G U65G?
**A.** kcat (glucosamine-6-phosphate [1]): 0.000271 ± 0.00011 s⁻¹; self-cleavage kobs at 640 uM GlcN6P (glucosamine-6-phosphate [5]): 5.52e-05 ± 9.3e-06 s⁻¹; self-cleavage kobs at 2500 uM GlcN6P (glucosamine-6-phosphate [6]): 8.89e-05 ± 9.9e-06 s⁻¹; self-cleavage kobs at 10000 uM GlcN6P (glucosamine-6-phosphate [7]): 0.00022 ± 3e-05 s⁻¹

**Q.** Which results are given for A53U U54A?
**A.** kcat (glucosamine-6-phosphate [1]): 0.0314 ± 0.0026 s⁻¹; KM (glucosamine-6-phosphate [2]): 1760 ± 180 µM; self-cleavage kobs at 40 uM GlcN6P (glucosamine-6-phosphate [3]): 0.000727 ± 0.00011 s⁻¹; self-cleavage kobs at 160 uM GlcN6P (glucosamine-6-phosphate [4]): 0.00236 ± 0.00084 s⁻¹; self-cleavage kobs at 640 uM GlcN6P (glucosamine-6-phosphate [5]): 0.00817 ± 0.0019 s⁻¹; self-cleavage kobs at 2500 uM GlcN6P (glucosamine-6-phosphate [6]): 0.0161 ± 0.0071 s⁻¹; self-cleavage kobs at 10000 uM GlcN6P (glucosamine-6-phosphate [7]): 0.0279 ± 0.0062 s⁻¹

**Q.** For U30C C71G, which kcat (glucosamine-6-phosphate [1]) is on record?
**A.** 4.29e-05 ± 9.8e-06 s⁻¹

**Q.** What about the “self-cleavage kobs at 640 uM GlcN6P” value (glucosamine-6-phosphate [5]) of the same variant?
**A.** 4.3e-05 ± 1.8e-05 s⁻¹

**Q.** What about the “self-cleavage kobs at 2500 uM GlcN6P” value (glucosamine-6-phosphate [6]) of the same variant?
**A.** 7.05e-05 ± 1.2e-05 s⁻¹

**Q.** And the “self-cleavage kobs at 10000 uM GlcN6P” value (glucosamine-6-phosphate [7])?
**A.** 3.35e-05 ± 7.1e-06 s⁻¹
